Experiment: label from the status in PepcDB records
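Further: failed if final PepcDB status was selected cloned or expressed and not failed if soluble or beyond.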

Sequence	protein production
MLRHIVLLILLSSEVRGVCNRIPQGASGPRSPVDDNFKILIDGNPETYVPEHQYNVSLSCPINMKFVSFTLVVEAEDPSAAFGGQDMTGHFELLGVGDTRFSTSCENMVENTNTNAKIYIAVSWIAPRNPDSGCVLIKAGVVQHRDVWFLDDGFLTKRICPEEIDELNSLTPPLETCCACDEAKYEIVLERKWARNTHWKDFPSEDWRTRLGEVIGASHSHSYRYWAYGGRASKGMKELAEHGATRTLENEIRENTQNGEVRTIIKAPGIPYRPKTFGTTLANARLDPVHHQISLAAKIDPSPDWILGVAGLELCLSNCTWLERKSSDEPQVPPDVVRRITSSYPSDHRSPFYDDTGAPMKPLATLYLTRKKLYIRECEEVLVPQEGPLECAVHPWNEWTNCSTRCGQGYSHRQRSFKNPNLAANFNCDRRLEEFRQCQGTQCGAAEEELEGEEPGLGMENPPSSGSMAECQLTNWGEWSPCTKTCGRGSSTRTRDYYNPQARQRCLSVMRIPLEETRECIGSDCGGTIPDNGELDGFPEPDVFGETDHGGYMGKTTSWNSKQEHSSLGSGNQAWNRKPYNSWKDKSLSNPRDNAQESPNLPFDQIENPQRPAYNPSDNMGGYDKGFPPTNSYSNDKLVGNRPGYNDFNSDYNNKDAYNDYTTPSFTSRTPFGSRYPNQQETVEGNTNDINGNYNVVQDYCFEKPYASTLPCFAKPVVESNYWFYDHEDHECKIFTTDNCDQNRNRFRTLTACEGTCLQPQINMERSENDAMDLYGRRSYDQKQTRDHISKQEVDPMINQKIGPMTYRQQEVDPMEKPVKQVILENPCRRPGADTTHPDAVGMAAEQIKAFKSPKLEENKY	failed
MLRKNILAYYGANFLLIIAQSLPHAILTPLLLSKGLSLSEILLVQTFFSFCVLVAEYPSGVLADLMSRKNLFLVSNAFLIASFSFVLFFDSFIFMLLAWGLYGLYSACSSGTIEASLITDIKENKKDLSKFLAKNNQITYLGMIIGSSLGSFLYLKVHAMLYIVGIFLIMLCVLTIIFYFKEKEGDFKSQKSLKLLKEQVKGSLKELKDNPKLKILLVGHLITPVFFMSHFQMWQAYFLKQGVKEQYLFVFYIAFQVISILIHFLKASSYSQKIALSSLVVLLGVSPLLLSNIPYCFIGVYALMVAFFTYMSYCLNYQFSKFVSKNNISSLSSLLSSCVRVVSVLILSLSSLELRYFSPLTIITMHFALTLIILFFFLYKAKPFDE	failed
MLRRIVALAAVAAGGMMLSKTFRKSRDSGYTSSVENFIEVNVPVSTAYNQWTQFEEFPRFMKGVREVQQIDDTHLHWRAEIAGKEEEWDAEITEQVPDQRIAWHSTNGAKNSGVVSFYGISDSKTRVVLKMDYGPRTFLEGLGDALGAVKARTSEDLRCFKEFLESRGKETGAWRGSVGQH	failed
MLRSLLVPLFSNAASSTDDHGITLPQYQVFINFRGDELRNSFVGFLVKAMRLEKINVFTDEVELRGTNLNYLFRRIEESRVAVAIFSERYTESCWCLDELVKMKEQMEQGKLVVVPVFYRLNATACKRFMGAFGDNLRNLEWEYRSEPERIQKWKEALSSVFSNIGLTSDIRRYNLINKNMDHTSEFLYIVLILNFFSEISDMTGLTTSYQFLLMMKSNLISYDIYIYPTKFCVNVFIGV	failed
MLRSTVIVTAHRRKAFIKDAIESVMENSLKPTEIIVVKNFKDYQIDSFLETYHVKNIYTDDETLGGKISLGIYQSSGDILFFLDDDDLFSKDKIREVIYKFSKYDIGFYHNAQEVIHNKLTGSNLSTDNQRFMYYTSIDTRRLKELLYKFKAGFNGSSIVISRDLAMRCVDLLKNVNISVDTFLLFCAVENNLPIMIDFRKLTYYRIIMSQNSNTEVNDKLFKMLYEDALYFKQIFSSKALRDFIEMSIIQHDFLYKIISKKEISKRDALISMVKMLRYSLKYPNKWNFFLQGLSLLSVFSAEKSRSLYLKKVRSNSMLSILEHHHHHH	not failed
MLSEQKEIAMQVSGMTCAACAARIEKGLKRMPGVTDANVNLATETVNVIYDPAETGTAAIQEKIEKLGYHVVTEKAEFDIEGMTCAACANRIEKRLNKIEGVANAPVNFALETVTVEYNPKEASVSDLKEAVDKLGYKLKLKGEQDS	not failed
MLSFLSARQSGLEDPLRLRRAQSTRRVLGLELNKDRDVERIHGSGVNTLDIEPVEGRYMLSGGSDGVVVLYDLENASRQPHYTCKAVCSVGRSHPDVHKYSVETVQWYPHDTGMFTSSSFDKTLKVWDTNTLQAADVFNFEETVYSHHMSPAATKHCLVAVGTRGPKVQLCDLKSGSCSHILQGHRQEILAVSWSPRHDYILATASADSRVKLWDVRRASGCLLTLDQHNGKKSQAAESANTAHNGKVNGLCFTSDGLHLLTIGTDNRMRLWNSSSGDNTLVNYGKVCNDSRKGLQFAVSCGCSSEFVFVPHGSTIAVYAVHSGERLAMLKGHYKSVDCCVFQPNFQELYSGSRDCNILAWVPPSYEPVPDDDDEAPAKSQLNPAFADAWSSSDEDG	failed
MLSFVVMSFLIFVIVMVNEHKAHLSVIQKMILAVVNGSITIILSIIVFYIFYPQNISLFLITAGILTVFVFLYGLLLFLFGFTHRELSYLSKYDKYKFLCKFTIEMFSSLTNHAFLTISAIVLYQIQHPKPTIDFIVMIGMITISVIVVMLLFLKTYSIIIKQLKKLENN	failed
MLSIIEQIKQGQLWDFHGGIHPEENKTISNQAAIQQAGIPSQLVLPLKQHIGGKGDILVSVGDVVLKGQPLTQGNIAMCVPVHAPTSGRITAIEPRTVAHPSGLTDLCIVIESDGEDRWVEDRTPIDDFSSVDPIDLIERIRQSGISGMGGAGFPTSRKIQSGIGKAEMLIINAAECEPYITADDRLMREHAEEIIDGIKILQHILTPKVCIIAIEDNKPEAVKALNQAVTDHDNIIIRVIPTKYPSGGSRQLTKIITGQEVPANGRSTDIGVIVQNVGTVFAIKRAICDAEPLIERIVTLTGNSMSTPGNLWVRLGTCIDYLMELVGYKADKKHPRIIMGGSLMGFTLPHQQVPITKITNCIITPDKKELPLYNHEMACIRCSSCADACPTSLLPQQLYWYSKSEDYDKCNEYNLNDCIECGACAYVCPSEIPLVQYYRQAKSEIYSRKQDALAAERAKLRFEEKNARLERDKLERENKFKQAAENRRKEMKTENKGGDDAIAAAIARVKAQKAAQESGVAAPKPAVAAAIARAKAKQAEAAKSETSVPDNSEMAKLREERKQQARERKAKLAEETTATDSDKSEKKDAVAAAIARAKARKAAQAEEKTETPVASEEKNQNTEGSADPKKAAVAAAIARAKARKAAQAEEKTETPVTSEEKNQNTEGSADPKKAAVAAAIARAKARKAAQAEEKTETPVASEEKNQNTEGSADPKKAAVAAAIARAKARKAAQAEEKTETPVTSEEKNQNTEGSADPKKAAVAAAIARAKARKATQAEEKTETPVTSEEKNQNTEESADPKKAAVAAAIARAKARKAAQENNKKEE	failed
MLSKNNFNEKLMQMNNQKAHFSIRKLTIGAASVLIGITFMGINGQTVNADEMTGNTQPEAMQVSTDKSTDATTTQQNDSDSSAQKNAAQTVEVPQNSKQDNTGETSQSTTDKKDTQVQKTESSETKADTAQSQVPPAANQTQKSADQNVENTQSPVASNTTQPKTQNDSKYNVADWGGSLNDETHEYTLNKYNGSDKENIYIPNTEDFIKAGKITDIDKVFITKDLIQNITKNGATSIVIDDQGSEDKNKVYAKGDWSNAFAGSTKLKSVDLSHLDTSQVTSMAGAFNGDTGLNDANLSGWNIQNMTNLSSLFYGANNLYNVDMSGWNFINNPNTNSMFSYADYNLKSVNLKNAKNVTDDILRIYARAIKNSNATTADLSDINLSPNVTSLHGLFSNMPDLKNVNLSGLDISHITDMGGMFSGDSNLESLDLSGLDLSKVTNTNNMFDWVGGKIKSVNITNTKSIPRSILDIYLKALSNTGTTTVDLSGINLSPNVTSLHGLFANMPNLGSANLSGLDISHITDMGGMFFNDTSLKSVNLSGLNLEKVKDLSTMFYGANNLENVDFSNTKFAPDANTNVMFAFADTKLQSVNINGTKNITREVLDAVIRAAKNSNATTLDLSGVSFSPSITSFNNLFSNMPNIESIDLTGWDTSHITDMSYMFFNDPKLKIIKGLEDFNTSNVTNMAYMFAAFNNPTTDNYDPKGLESLGHLTKLDLSNWDTSNVTNMLYMFAGQTNLTSLGDLSKWNTSKVTNMAYMFYDLKNIDDGKLDLTGWDTSNVTDMSYMFFNMFLQKDLSFVNDWNTGKVTDMSYMFANDKNLEKLDLSKWDVSSVGLKHTEQNYSLAMMFAGDTSLTTVGDISHWNTKNVHDTRQMFYNTPKLTNIDLSGWNTGKLQIAEGMFNSSGAKQINLDNWDLSNIKRITPAGYVEGKAGVGVLRGVENMFKNLTNPAVISMNKVILPDARNAFEINDFEGNKAIVVIANGQNGEALQDLLKINNQTWTDKSGNNVTGRQNSDYVTYVRADDNSNQIGQRGLNFIFTNLDDLHQYFNQVTNADNVKNDIGELSHDWDAQQDTDNNIVKITLRLSPASSYDPYSENIHAEKDGNILADLMTSKYQLHIVAPTNTTETKKPTRTIIIENPDGTTSTKEQTVEFKREVTKHVDGTEEATSWTPTSGEWTKFDVPQIAGYDSYVDGTQSKSVASEPVNKDTENVTVVITYKSNAVNPEPIIPDPVKPEVDPDKKDPQEPKTDPVTPTPDEPENPKPEKKPSNPDKRKDDNSKVVKPHGENKAAKKNHSSVEHKKTGTHTIKLSHRVAPKGTQATNGSKKSTSTVNKAADNNKNTLPQTGEKKSNAGLIGLALIALASLGLIDRKRRD	failed
MLSNRFNRWTVAAIALMGTAIATVPGRVLAQTPDHPSDTAAQFPTRNDLKSLTTSGSYLAARHASVERDATSAAAFYRSALRTDPKNNELLDRAFISSVADGDIDEAVKLAERVLTIDKTNRVARLVVGVHDLKMKKYATAQTNINQSIRGPITDLVATLLSGWAAYGAGDSKGAVATIDKLAGPEWYPLFKDLHAGMILELAGKEKDAGTRFERAYKLDDSMLRVTEAYARWLSRNKDAAAATTVYQAFDKKLARHPLIVEGLRDTKAGKKLPPLVDSAQAGAAEALYGIGATLTRRGGEDLALVYLQLSLYLQPTHPLALLSLADLYESVKRPQMAIKVYERVPSTSPLKRNAQIQLAIDLDSADRTDEAIKILKGVTSEDSKDLEAIMALGNIERGRKKFGDCGATYSQGVDVLPAGNDKANSVWYYYRGICEERSKQWAKAEADMKKALELQPDQPHVLNYLGYSWIDQGVNLDEGMKMIKRAVEQRPDDGYIVDSLGWAYYRIGNYEEAVKNLERAIDLKPEDPTINDHLGDAYWRVGRTLEAKFQWSHARDLKPEPDELPKIEAKIANGLTEDNSNSSAAQAEKKKDDGKGG	failed
MLTDPFFYLVAIPAVILLGLTKGGFAGIGVVAVPMMTLAVSPVMAASIILPILLVQDVVSVWSFRKTWDKAILVLMLPAAAVGIFLGWALAALVEEAAVELAVGAISVVFALQRLWAEHALRAADSIEAGPARPWLGVLCGATAGFTSQIAHAGGPPFQIYVLPRGLPRDVFIGTSAIFFGVVNWMKVPAYLALGQLTPQALATAGVLLPLAIASTWAGVWLVRRVPAEGFYKVIYVLLVLVGGKLMFDGARGLLT	failed
MLTFAPLNFLAIGVGATLGAWLRWVPGLRLNGAGWPWGTLTANLVGGYLIGVMVALIASHPEWPAWIRLAAVTGFLGGLTTFSTFSAETVDMLERGVYATAAAYAGASLAGSLAMTGLATVRLLLR	failed
MLTFFIGDLLPIIVIMLLGYFSGRRETFSEDQARAFNKLVLNYALPAALFVSITRANREMIFADTRLTLVSLVVIVGCFFFSWFGCYKFFKRTHAEAAVCALIAGSPTIGFLGFAVLDPIYGDSVSTGLVVAIISIIVNAITIPIGLYLLNPSSGADGKKNSNLSALISAAKEPVVWAPVLATILVLVGVKIPAAWDPTFNLIAKANSGVAVFAAGLTLAAHKFEFSAEIAYNTFLKLILMPLALLLVGMACHLNSEHLQMMVLAGALPPAFSGIIIASRFNVYTRTGTASLAVSVLGFVVTAPLWIYVSRLVS	failed
MLTGLKIAVIGGDARQLEIIRKLTEQQADIYLVGFDQLDHGFTGAVKCNIDEIPFQQIDSIILPVSATTGEGVVSTVFSNEEVVLKQDHLDRTPAHCVIFSGISNAYLENIAAQAKRKLVKLFERDDIAIYNSIPTVEGTIMLAIQHTDYTIHGSQVAVLGLGRTGMTIARTFAALGANVKVGARSSAHLARITEMGLVPFHTDELKEHVKDIDICINTIPSMILNQTVLSSMTPKTLILDLASRPGGTDFKYAEKQGIKALLAPGLPGIVAPKTAGQILANVLSKLLAEIQAEEGK	failed

Source: a protein production outcome set (Wang et al. 2014)
